To fix the notation:
B1: R4112 (peptide)
peptide: Ac-CY[Tle]KH[NMeA][Phg][Trp(7-aza)]Y[NMePhe(4-F)][Sar]C-NH2
modifications: linker 1-12 via mXylylene
SMILES: CC(=O)N[C@H]1CSCc2cccc(c2)CSC[C@@H](C(N)=O)NC(=O)CN(C)C(=O)[C@H](Cc2ccc(F)cc2)N(C)C(=O)[C@H](Cc2ccc(O)cc2)NC(=O)[C@H](Cc2c[nH]c3ncccc23)NC(=O)[C@H](c2ccccc2)NC(=O)[C@H](C)N(C)C(=O)[C@H](Cc2c[nH]cn2)NC(=O)[C@H](CCCCN)NC(=O)[C@H](C(C)(C)C)NC(=O)[C@H](Cc2ccc(O)cc2)NC1=O
B2: R4106 (peptide)
peptide: [UBX][Ahp][Nva]CY[Tle]KH[NMeA][Phg][Trp(7-aza)]Y[NMePhe(4-F)][Sar]C-NH2
modifications: linker 4-15 via mXylylene; N-terminus assumed
SMILES: CCC[C@H](NC(=O)CCCCCCNC(=O)[C@H](CC(C)C)NC(=O)[C@@H](O)[C@H](N)Cc1ccccc1)C(=O)N[C@H]1CSCc2cccc(c2)CSC[C@@H](C(N)=O)NC(=O)CN(C)C(=O)[C@H](Cc2ccc(F)cc2)N(C)C(=O)[C@H](Cc2ccc(O)cc2)NC(=O)[C@H](Cc2c[nH]c3ncccc23)NC(=O)[C@H](c2ccccc2)NC(=O)[C@H](C)N(C)C(=O)[C@H](Cc2c[nH]cn2)NC(=O)[C@H](CCCCN)NC(=O)[C@H](C(C)(C)C)NC(=O)[C@H](Cc2ccc(O)cc2)NC1=O
B3: R4103 (peptide)
peptide: Glutaryl-[Nva]CY[Tle]KH[NMeA][Phg][Trp(7-aza)]Y[NMePhe(4-F)][Sar]C-NH2
modifications: linker 2-13 via mXylylene
SMILES: CCC[C@H](NC(=O)CCCC(=O)O)C(=O)N[C@H]1CSCc2cccc(c2)CSC[C@@H](C(N)=O)NC(=O)CN(C)C(=O)[C@H](Cc2ccc(F)cc2)N(C)C(=O)[C@H](Cc2ccc(O)cc2)NC(=O)[C@H](Cc2c[nH]c3ncccc23)NC(=O)[C@H](c2ccccc2)NC(=O)[C@H](C)N(C)C(=O)[C@H](Cc2c[nH]cn2)NC(=O)[C@H](CCCCN)NC(=O)[C@H](C(C)(C)C)NC(=O)[C@H](Cc2ccc(O)cc2)NC1=O
B4: R4101 (peptide)
peptide: Ac-[Nva]CY[Tle]KH[NMeA][Phg][Trp(7-aza)]Y[NMePhe(4-F)][NMeA]C-NH2
modifications: linker 2-13 via mXylylene
SMILES: CCC[C@H](NC(C)=O)C(=O)N[C@H]1CSCc2cccc(c2)CSC[C@@H](C(N)=O)NC(=O)[C@H](C)N(C)C(=O)[C@H](Cc2ccc(F)cc2)N(C)C(=O)[C@H](Cc2ccc(O)cc2)NC(=O)[C@H](Cc2c[nH]c3ncccc23)NC(=O)[C@H](c2ccccc2)NC(=O)[C@H](C)N(C)C(=O)[C@H](Cc2c[nH]cn2)NC(=O)[C@H](CCCCN)NC(=O)[C@H](C(C)(C)C)NC(=O)[C@H](Cc2ccc(O)cc2)NC1=O
B5: R4002 (peptide)
peptide: [Nva]CY[Tle]KH[NMeA][Phg][Trp(7-aza)]Y[NMePhe(4-F)][Sar]C-NH2
modifications: linker 2-13 via mXylylene; N-terminus assumed
SMILES: CCC[C@H](N)C(=O)N[C@H]1CSCc2cccc(c2)CSC[C@@H](C(N)=O)NC(=O)CN(C)C(=O)[C@H](Cc2ccc(F)cc2)N(C)C(=O)[C@H](Cc2ccc(O)cc2)NC(=O)[C@H](Cc2c[nH]c3ncccc23)NC(=O)[C@H](c2ccccc2)NC(=O)[C@H](C)N(C)C(=O)[C@H](Cc2c[nH]cn2)NC(=O)[C@H](CCCCN)NC(=O)[C@H](C(C)(C)C)NC(=O)[C@H](Cc2ccc(O)cc2)NC1=O
B6: R4104 (peptide)
peptide: Ac-SCY[Tle]KH[NMeA][Phg][Trp(7-aza)]Y[NMePhe(4-F)][Sar]C-NH2
modifications: linker 2-13 via mXylylene
SMILES: CC(=O)N[C@@H](CO)C(=O)N[C@H]1CSCc2cccc(c2)CSC[C@@H](C(N)=O)NC(=O)CN(C)C(=O)[C@H](Cc2ccc(F)cc2)N(C)C(=O)[C@H](Cc2ccc(O)cc2)NC(=O)[C@H](Cc2c[nH]c3ncccc23)NC(=O)[C@H](c2ccccc2)NC(=O)[C@H](C)N(C)C(=O)[C@H](Cc2c[nH]cn2)NC(=O)[C@H](CCCCN)NC(=O)[C@H](C(C)(C)C)NC(=O)[C@H](Cc2ccc(O)cc2)NC1=O
B7: R4107 (peptide)
peptide: Ac-[Nva]CY[Tle]KH[NMeA][Phg][Trp(7-aza)]Y[NMePhe(4-F)][Sar]C[PEG4][Pra]-NH2
modifications: linker 2-13 via mXylylene
SMILES: C#CC[C@H](NC(=O)CCOCCOCCOCCOCCNC(=O)[C@@H]1CSCc2cccc(c2)CSC[C@H](NC(=O)[C@H](CCC)NC(C)=O)C(=O)N[C@@H](Cc2ccc(O)cc2)C(=O)N[C@@H](C(C)(C)C)C(=O)N[C@@H](CCCCN)C(=O)N[C@@H](Cc2c[nH]cn2)C(=O)N(C)[C@@H](C)C(=O)N[C@@H](c2ccccc2)C(=O)N[C@@H](Cc2c[nH]c3ncccc23)C(=O)N[C@@H](Cc2ccc(O)cc2)C(=O)N(C)[C@@H](Cc2ccc(F)cc2)C(=O)N(C)CC(=O)N1)C(N)=O

As usually defined, the IC50 is the concentration needed to halve the response being measured. Low readings indicate greater potency in that assay, high ones weaker potency in that assay.

*1 amine or outer side, *2 acyl side, *3 side chain or, on linkers, in order; H or OH if unused. Bridges are numbered along the chain shown (N, C = ends). Where no end group is shown, it is not given here. [ ]: non-standard residue; d: D form. UBX = ((2S,3R)-3-amino-2-hydroxy-4-phenylbutanoyl)-L-leucine, CC(C)C[C@H](NC(=O)[C@@H](O)[C@@H](Cc1ccccc1)N[*:1])C(=O)[*:2]; TDSPA = (R)-2-amino-3-(tert-butyldisulfanyl)propanoic acid, CC(C)(C)SSC[C@H](N[*:1])C(=O)[*:2]; m‑xylylene = m-xylylene thioether bridge between Cys; Trp(7-aza) = N[C@@H](Cc1c[nH]c2ncccc12)C(=O)O; NMePhe(4-F) = CN[C@@H](Cc1ccc(F)cc1)C(=O)O; mXylylene = c1cc(C[*:1])cc(C[*:2])c1; Glutaryl = O=C(CCCC(=O)[*:2])[*:1]; PEG4 = NCCOCCOCCOCCOCCC(=O)O; Phg = N[C@H](C(=O)O)c1ccccc1; Tle = CC(C)(C)[C@H](N)C(=O)O; NMeA = CN[C@@H](C)C(=O)O; Pra = C#CC[C@H](N)C(=O)O; Nva = CCC[C@H](N)C(=O)O; Ahp = NCCCCCCC(=O)O; Sar = CNCC(=O)O

The target in this assay is GMPPNP-loaded H-Ras or GTP-loaded K-Ras. Nature of the assay: FP competition, displacement of probe R4007 from Ras.
As to Ac-[Nva]CY[Tle]KH[NMeA][Phg][Trp(7-aza)]Y[NMePhe(4-F)][Sar]C[dS][dA]GCVIM (linker 2-13 via mXylylene) [R4102], the IC50 was determined as 1.82 nM.

On to [Nva]CY[Tle]KH[NMeA][Phg][Trp(7-aza)]Y[NMePhe(4-F)][Sar]C[dS]KG[TDSPA]VIM (linker 2-13 via mXylylene) [R4113], for which the concentration for half-maximal inhibition (IC50) came to 32.7 nM.

In turn, Ac-[Nva]CY[Tle]KH[NMeA][Phg][Trp(7-aza)]Y[NMePhe(4-F)][Sar]C (linker 2-13 via mXylylene) [R4108] yielded an IC50 of 9.45 nM.

The molecule B1 yielded a 50% inhibitory concentration (IC50) of 21.4 nM.

In turn, Ac-[Nva]CY[Tle]KH[NMeA][Phg][Trp(7-aza)]Y[NMePhe(4-F)][Sar]C[dS]KGCVIM (linker 2-13 via mXylylene) [R4105] registered an IC50 of 3.31 nM.

On to Ac-[Nva]CY[Tle]KH[NMeA][Phg][Trp(7-aza)]Y[NMePhe(4-F)][Sar]C[dS][dA]K[TDSPA]VIM (linker 2-13 via mXylylene) [R4111], for which the IC50 was found to be 20.8 nM.

In turn, B2 showed an IC50 of 8.38 nM.

B3: the IC50 worked out at 2 nM.

Regarding Ac-[Nva]C[Tle]YHT[Trp(7-aza)][Trp(7-aza)]E[Trp(7-aza)][Nva]HC-NH2 (linker 2-13 via m‑xylylene) [R4100], the 50% inhibitory concentration (IC50) is 1.06 nM.

Turning to B4, the IC50 worked out at 1.45 nM.

For the molecule Ac-[Nva]CY[Tle]KH[NMeA][Phg][Trp(7-aza)]Y[NMePhe(4-F)][Sar]C[dS]KG[TDSPA]VVL (linker 2-13 via mXylylene) [R4110], the IC50 is 16.4 nM.

Regarding B5, the IC50 stood at 7.92 nM.

B6: the IC50 worked out at 3.29 nM.

The molecule Ac-[Nva]CY[Tle]KH[NMeA][Phg][Trp(7-aza)]Y[NMePhe(4-F)][Sar]C[dS]KG[TDSPA]VIM (linker 2-13 via mXylylene) [R4109] returned a 50% inhibitory concentration (IC50) of 14.2 nM.

B7 registered a half-inhibitory concentration (IC50) of 9.42 nM.
